Holding throughout (assay): cell-based or functional assay
In experiment [1] the target is Y1R.
Experiment [2] addresses T1, human NPY2 receptor (human, UniProt P49146 1-381).
T1 sequence (looked up): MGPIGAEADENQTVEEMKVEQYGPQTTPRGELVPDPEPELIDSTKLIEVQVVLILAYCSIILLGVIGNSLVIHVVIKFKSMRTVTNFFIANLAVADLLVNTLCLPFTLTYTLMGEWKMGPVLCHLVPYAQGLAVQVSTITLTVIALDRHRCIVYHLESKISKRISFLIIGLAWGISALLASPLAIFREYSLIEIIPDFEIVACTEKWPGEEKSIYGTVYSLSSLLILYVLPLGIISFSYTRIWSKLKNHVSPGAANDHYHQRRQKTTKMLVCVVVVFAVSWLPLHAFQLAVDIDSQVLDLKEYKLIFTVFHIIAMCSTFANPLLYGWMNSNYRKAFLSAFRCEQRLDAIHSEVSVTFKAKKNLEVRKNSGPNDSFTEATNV

The target of experiment [3] is Y4R.

*1 amine or outer side, *2 acyl side, *3 side chain or, on linkers, in order; H or OH if unused. Bridges are numbered along the chain shown (N, C = ends). [ ]: non-standard residue; d: D form. Cms = N-(5-O-carboxymethyl)-serotonin, O=C(COc1ccc2[nH]cc(CCN[*:1])c2c1)[*:2]; Nle = CCCC[C@H](N)C(=O)O

Sequence of Y1R (P25929 whole entry): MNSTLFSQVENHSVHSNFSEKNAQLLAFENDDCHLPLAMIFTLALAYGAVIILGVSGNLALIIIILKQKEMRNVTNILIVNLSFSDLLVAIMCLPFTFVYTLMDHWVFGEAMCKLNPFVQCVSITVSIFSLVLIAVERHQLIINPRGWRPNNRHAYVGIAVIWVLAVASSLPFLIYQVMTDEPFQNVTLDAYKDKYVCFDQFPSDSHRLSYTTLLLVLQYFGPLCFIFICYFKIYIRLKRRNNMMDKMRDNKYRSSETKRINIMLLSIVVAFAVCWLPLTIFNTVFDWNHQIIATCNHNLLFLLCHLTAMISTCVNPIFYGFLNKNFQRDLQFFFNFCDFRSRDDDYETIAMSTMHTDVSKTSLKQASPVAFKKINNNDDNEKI

B1: Cyclo Lys28-Aspu32 Ac-Ile-Nle-Cms-Arg-His-Tyr-Lys-Asn-Leu-Val-Asp-Arg-Gln-Arg-Tyr-NH2 (peptide)
peptide: Ac-I[Nle][Cms]RHYKNLVDRQRY-NH2
modifications: lactam 7-11
SMILES: CCCC[C@H](NC(=O)[C@@H](NC(C)=O)[C@@H](C)CC)C(=O)NCCc1c[nH]c2ccc(OCC(=O)N[C@@H](CCCNC(=N)N)C(=O)N[C@@H](Cc3c[nH]cn3)C(=O)N[C@@H](Cc3ccc(O)cc3)C(=O)N[C@H]3CCCCNC(=O)C[C@@H](C(=O)N[C@@H](CCCNC(=N)N)C(=O)N[C@@H](CCC(N)=O)C(=O)N[C@@H](CCCNC(=N)N)C(=O)N[C@@H](Cc4ccc(O)cc4)C(N)=O)NC(=O)[C@H](C(C)C)NC(=O)[C@H](CC(C)C)NC(=O)[C@H](CC(N)=O)NC3=O)cc12
B1: in experiment [1], the “Y1R EC50(nM) FLIPR” value is over 5000 nM. In experiment [2], the “Y2R EC50(nM) FLIPR” value came to 146 nM and the “Y2R IC50(nM) cAMP” value is 32.2 nM. Moreover, the “Y4R EC50(nM) FLIPR” value in experiment [3] was over 5000 nM.

The values are drawn from patent US7410949 (Hoffmann-La Roche, dated 2008).
